In PMC3876883:

Key:
Assay in all cases: single-particle photobleaching
[1] = biological target: K2P3–WT, tandem subunit of K2P3 and wild-type K2P1 (human) (UniProt O14649)
[2] = biological target: K2P9–WT, tandem subunit of K2P9 and wild-type K2P1 (human) (UniProt Q9NPC2)
[3] = biological target: WT–K2P3, tandem subunit of wild-type K2P1 and K2P3 (human) (UniProt O00180)
[4] = biological target: WT–K2P9, tandem subunit of wild-type K2P1 and K2P9 (human) (UniProt O00180)

Chain of UniProt Q9NPC2 (Q9NPC2 whole entry, looked up, tested part not stated): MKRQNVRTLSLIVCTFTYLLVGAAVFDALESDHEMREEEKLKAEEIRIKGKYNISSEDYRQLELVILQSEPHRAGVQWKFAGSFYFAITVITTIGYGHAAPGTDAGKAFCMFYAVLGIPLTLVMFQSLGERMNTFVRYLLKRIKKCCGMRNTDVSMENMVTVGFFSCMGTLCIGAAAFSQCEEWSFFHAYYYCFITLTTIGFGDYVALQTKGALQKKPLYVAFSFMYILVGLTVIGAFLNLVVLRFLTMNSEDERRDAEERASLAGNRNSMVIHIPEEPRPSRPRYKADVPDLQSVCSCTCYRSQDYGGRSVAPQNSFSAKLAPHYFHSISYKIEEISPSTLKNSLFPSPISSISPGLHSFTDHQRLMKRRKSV
Chain of UniProt O14649 (O14649 whole entry, looked up, tested part not stated): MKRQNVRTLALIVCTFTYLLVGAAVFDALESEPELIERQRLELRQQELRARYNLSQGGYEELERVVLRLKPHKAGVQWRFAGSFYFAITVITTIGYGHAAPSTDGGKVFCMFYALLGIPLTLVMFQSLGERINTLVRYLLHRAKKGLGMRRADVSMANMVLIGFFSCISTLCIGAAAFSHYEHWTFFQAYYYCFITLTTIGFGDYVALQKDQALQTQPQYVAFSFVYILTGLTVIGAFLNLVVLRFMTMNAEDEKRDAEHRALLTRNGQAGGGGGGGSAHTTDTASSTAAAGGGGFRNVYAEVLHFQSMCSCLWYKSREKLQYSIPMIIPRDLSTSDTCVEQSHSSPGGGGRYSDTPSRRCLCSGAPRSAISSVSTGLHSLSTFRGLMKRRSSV

GFP-SUMO1 (from UniProt P63165 1-97) (natural protein)
1: stoichiometry N (SUMO1 per channel) [1] | stoichiometry N (SUMO1 per channel) [2] | stoichiometry N (bleaching step per particle) [3] | stoichiometry N (bleaching step per particle) [4]
